The RNAGym collection of RNA variant scans (doi:10.7554/elife.90254)

B1: LINE1-full (parent)
chain: UACGUAGGUGGUUUUCCCCUGAUAGUGCUAAGGGGGCCUGGAAGUUUGGACUGGGCAGAGCUCAACACAGCGUGGCAAAGUGGCUGUGGCUAGACUGCCUCUCUGGAUUCCUCGUCACUCAGCAGGGCAUCUCUGAGAGAAAUGCC

Variants of: B1
Assay: self-cleavage, relative activity (ratio to wild type); higher = more cleavage; in vitro, sequencing; the parent is a self-cleaving ribozyme

Variant | self-cleavage
U39C G105U | 0.85
U39C G114A | 1.04
U39C G122C | 0.96
U39C G126A | 1.18
U39C G127U | 0.87
U39C G139A | 0.58
U39C G139U | 0.42
U39C U45A | 0.87
U39C U45G | 1.17
U39C U46G | 1.75
U39C U47A | 1.15
U39C U62C | 0.09
U39C U73A | 1
U39C U73C | 2.09
U39C U73G | 1.08
U39C U85G | 0.04
U39C U87C | 0.17
U39C U91A | 0.39
U39C U96A | 0.08
U39C U96C | 0.05
U39C U102A | 1.03

Variant | self-cleavage
U39C U104C | 1.77
U39C U108C | 1.92
U39C U109C | 1.49
U39C U109G | 0.74
U39C U112C | 1.24
U39C U132A | 1.46
U39C U132C | 1.32
U39C U143A | 1.01
U39C U143C | 1.33
U39G | 1.46
U39G A64G | 0.09
U39G A65G | 0.15
U39G A67G | 1.2
U39G A92G | 0
U39G A92U | 1.06
U39G A129U | 1.44
U39G A138G | 1.01
U39G C103A | 1.85
U39G C123U | 0
U39G G74A | 0.97
U39G G135A | 1.86

Variant | self-cleavage
U39G U45G | 1.05
U39G U47C | 0.52
U39G U52C | 0
U39G U85A | 0
U39G U85C | 0.14
U39G U109C | 1.87
U39G U112A | 1.65
U39G U130C | 1.25
U39G U132C | 2.44
U39G U143C | 1.81
G40A A42G | 1.07
G40A A43G | 1
G40A A57U | 0.05
G40A A59G | 0.06
G40A A64C | 0.18
G40A A64U | 0.38
G40A A69G | 0.49
G40A A77G | 1.02
G40A A78U | 1.96
G40A A79U | 1.13
G40A A94U | 0.26

Variant | self-cleavage
G40A A117G | 1.03
G40A A124G | 0.52
G40A A129C | 1.63
G40A A136G | 0.85
G40A A140G | 1.12
G40A C131U | 0.76
G40A C145U | 0.64
G40A G53A | 0.74
G40A G74U | 1.45
G40A G82A | 1.73
G40A G106A | 1.23
G40A G139A | 0.58
G40A U46A | 1.23
G40A U46C | 1.4
G40A U81C | 1.04
G40A U85A | 0.02
G40A U85C | 0.04
G40A U87C | 0.06
G40A U91C | 0.21
G40A U96A | 0.03
G40A U104A | 0.75
